This note sets out measurements from patent publication US7399847 (GENERAL HOSPITAL, dated 2008).

The experiment addresses T1, PSGL-1-NH2/CD34-COOH (UniProt Q14242 18-117; P28906 30-385).
T1 construct: range mature amino terminus-117;range 30-end (end not numbered), on cells; Cotransfected with FTVIIh; also called PSGL-1 apical domain on CD34
T1 sequence: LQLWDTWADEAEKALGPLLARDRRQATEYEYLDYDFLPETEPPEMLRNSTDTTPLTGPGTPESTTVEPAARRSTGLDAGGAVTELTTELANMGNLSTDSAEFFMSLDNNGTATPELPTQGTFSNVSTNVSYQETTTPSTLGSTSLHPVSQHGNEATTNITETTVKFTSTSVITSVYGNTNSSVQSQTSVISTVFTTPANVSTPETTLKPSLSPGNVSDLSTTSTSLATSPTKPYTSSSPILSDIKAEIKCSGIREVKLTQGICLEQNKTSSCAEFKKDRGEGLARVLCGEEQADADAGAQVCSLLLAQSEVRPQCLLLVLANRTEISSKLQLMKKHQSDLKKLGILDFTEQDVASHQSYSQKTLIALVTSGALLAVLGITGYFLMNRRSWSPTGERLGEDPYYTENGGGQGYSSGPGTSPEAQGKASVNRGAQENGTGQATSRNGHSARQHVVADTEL
Put plainly: adhesion of 51Cr-labelled transfected COS cells to immobilized P-selectin:Ig.

Procedure: To assess the importance of these residues, the tyrosines were converted to phenylalanine (FIG. 9A). In a second peptide, the threonines were converted to alanines. In addition, a third peptide, containing a quintuple mutation, was prepared such that both conversions were made in a single peptide. […] Cells expressing the resulting chimeras were tested for their ability to bind to immobilized P-selectin (FIG. 9A). […] Expression of the flu tag or sLe^x epitope was not affected in these cells.

B1: P-selectin:immunoglobulin fusion protein (Fc fusion, UniProt P16109 42-321, looked up)
chain: WTYHYSTKAYSWNISRKYCQNRYTDLVAIQNKNEIDYLNKVLPYYSSYYWIGIRKNNKTWTWVGTKKALTNEAENWADNEPNNKRNNEDCVEIYIKSPSAPGKWNDEHCLKKKHALCYTASCQDMSCSKQGECLETIGNYTCSCYPGFYGPECEYVRECGELELPQHVLMNCSHPLGNFSFNSQCSFHCTDGYQVNGPSKLECLASGIWTNKPPQCLAAQCPPLKIPERGNMTCLHSAKAFQHQSSCSFSCEEGFALVGPEVVQCTASGVWTAPAPVCKA
notes: domain: lectin, EGF-related, and first two short consensus repeat related domains; Made in COS cells; captured from supernatant on wells coated with goat anti-human IgG Fc; also called soluble P-selectin; P-selectin Ig chimera; not shown: hinge, CH2, and CH3 domains of human IgG1
For the molecule B1, the binding result is listed as “binds”.
